This data set is described as follows: Spectrophotometric (240 nm) cocaine binding and hydrolysis assay with purified butyrylcholinesterase variants. As to conditions: for Km / kcat (hydrolysis rate): (−)-cocaine; for Km: 0.1M potassium phosphate pH 7.0 at 30° C.; for kcat (hydrolysis rate): active sites titrated with chlorpyrifos oxon; for Cocaine Binding or Cocaine Hydrolysis (result in words): Table 4. Type of data set: biochemical. The protocol:
[…]. Pharmacol. 41:1249–1254 (1991). Km values were determined in 0.1M potassium phosphate pH 7.0 at 30° C. for (−)-cocaine. Vmax values and Km values were calculated using Sigma Plot for Macintosh (Jandel Scientific, San Rafael, Calif.).
Once Vmax values and Km values were calculated, the number of active sites in each butyrylcholinesterase preparation was determined. The titration of active sites was performed with chlorpyrifos oxon (MET-674B, Chem Service, West Chester, Pa.), an inhibitor of butyrylcholinesterase. One molecule of chlorpyrifos oxon binds and inhibits one molecule of butyrylcholinesterase, which allows for calculation of the number of active sites. Based on the number of active sites, the kcat value for each variant was calculated (Table 3). […].

B1: Q119Y (protein, UniProt P06276 29-602, looked up, variant Q119Y)
Cholinesterase: EDDIIIATKNGKVRGMNLTVFGGTVTAFLGIPYAQPPLGRLRFKKPQSLTKWSDIWNATKYANSCCQNIDQSFPGFHGSEMWNPNTDLSEDCLYLNVWIPAPKPKNATVLIWIYGGGFYTGTSSLHVYDGKFLARVERVIVVSMNYRVGALGFLALPGNPEAPGNMGLFDQQLALQWVQKNIAAFGGNPKSVTLFGESAGAASVSLHLLSPGSHSLFTRAILQSGSFNAPWAVTSLYEARNRTLNLAKLTGCSRENETEIIKCLRNKDPQEILLNEAFVVPYGTPLSVNFGPTVDGDFLTDMPDILLELGQFKKTQILVGVNKDEGTAFLVYGAPGFSKDNNSIITRKEFQEGLKIFFPGVSEFGKESILFHYTDWVDDQRPENYREALGDVVGDYNFICPALEFTKKFSEWGNNAFFYYFEHRSSKLPWPEWMGVMHGYEIEFVFGLPLERRDNYTKAEEILSRSIVKRWANFAKYGNPNETQNNSTSWPVFKSTEQKYLTLNTESTRIMTKLRAQQCRFWTSFFPKVLEMTGNIDEAEWEWKAGFHRWNNYMMDWKNQFNDYTSKKESCVGL
For the molecule B1, the Michaelis-Menten constant (Km) is 56 µM, the “kcat (hydrolysis rate)” value turned out to be 0.0333 s⁻¹ and the “Cocaine Binding or Cocaine Hydrolysis (result in words)” value (“Cocaine Binding or Cocaine Hydrolysis” below) is reported as “not a cocaine hydrolase”.

B2: A328I (protein, UniProt P06276 29-602, looked up, variant A328I)
Cholinesterase: EDDIIIATKNGKVRGMNLTVFGGTVTAFLGIPYAQPPLGRLRFKKPQSLTKWSDIWNATKYANSCCQNIDQSFPGFHGSEMWNPNTDLSEDCLYLNVWIPAPKPKNATVLIWIYGGGFQTGTSSLHVYDGKFLARVERVIVVSMNYRVGALGFLALPGNPEAPGNMGLFDQQLALQWVQKNIAAFGGNPKSVTLFGESAGAASVSLHLLSPGSHSLFTRAILQSGSFNAPWAVTSLYEARNRTLNLAKLTGCSRENETEIIKCLRNKDPQEILLNEAFVVPYGTPLSVNFGPTVDGDFLTDMPDILLELGQFKKTQILVGVNKDEGTIFLVYGAPGFSKDNNSIITRKEFQEGLKIFFPGVSEFGKESILFHYTDWVDDQRPENYREALGDVVGDYNFICPALEFTKKFSEWGNNAFFYYFEHRSSKLPWPEWMGVMHGYEIEFVFGLPLERRDNYTKAEEILSRSIVKRWANFAKYGNPNETQNNSTSWPVFKSTEQKYLTLNTESTRIMTKLRAQQCRFWTSFFPKVLEMTGNIDEAEWEWKAGFHRWNNYMMDWKNQFNDYTSKKESCVGL
Consider B2, for which the Km was 11 µM, the “kcat (hydrolysis rate)” value came to 0.0083 s⁻¹ and the “Cocaine Binding or Cocaine Hydrolysis” value is “Not a cocaine hydrolase”.

B3: T120F (protein, UniProt P06276 29-602, looked up, variant T120F)
Cholinesterase: EDDIIIATKNGKVRGMNLTVFGGTVTAFLGIPYAQPPLGRLRFKKPQSLTKWSDIWNATKYANSCCQNIDQSFPGFHGSEMWNPNTDLSEDCLYLNVWIPAPKPKNATVLIWIYGGGFQFGTSSLHVYDGKFLARVERVIVVSMNYRVGALGFLALPGNPEAPGNMGLFDQQLALQWVQKNIAAFGGNPKSVTLFGESAGAASVSLHLLSPGSHSLFTRAILQSGSFNAPWAVTSLYEARNRTLNLAKLTGCSRENETEIIKCLRNKDPQEILLNEAFVVPYGTPLSVNFGPTVDGDFLTDMPDILLELGQFKKTQILVGVNKDEGTAFLVYGAPGFSKDNNSIITRKEFQEGLKIFFPGVSEFGKESILFHYTDWVDDQRPENYREALGDVVGDYNFICPALEFTKKFSEWGNNAFFYYFEHRSSKLPWPEWMGVMHGYEIEFVFGLPLERRDNYTKAEEILSRSIVKRWANFAKYGNPNETQNNSTSWPVFKSTEQKYLTLNTESTRIMTKLRAQQCRFWTSFFPKVLEMTGNIDEAEWEWKAGFHRWNNYMMDWKNQFNDYTSKKESCVGL
For the molecule B3, the Km was 97 µM and the “Cocaine Binding or Cocaine Hydrolysis” value is “not a cocaine hydrolase”.

B4: Y332A (protein, UniProt P06276 29-602, looked up, variant Y332A)
Cholinesterase: EDDIIIATKNGKVRGMNLTVFGGTVTAFLGIPYAQPPLGRLRFKKPQSLTKWSDIWNATKYANSCCQNIDQSFPGFHGSEMWNPNTDLSEDCLYLNVWIPAPKPKNATVLIWIYGGGFQTGTSSLHVYDGKFLARVERVIVVSMNYRVGALGFLALPGNPEAPGNMGLFDQQLALQWVQKNIAAFGGNPKSVTLFGESAGAASVSLHLLSPGSHSLFTRAILQSGSFNAPWAVTSLYEARNRTLNLAKLTGCSRENETEIIKCLRNKDPQEILLNEAFVVPYGTPLSVNFGPTVDGDFLTDMPDILLELGQFKKTQILVGVNKDEGTAFLVAGAPGFSKDNNSIITRKEFQEGLKIFFPGVSEFGKESILFHYTDWVDDQRPENYREALGDVVGDYNFICPALEFTKKFSEWGNNAFFYYFEHRSSKLPWPEWMGVMHGYEIEFVFGLPLERRDNYTKAEEILSRSIVKRWANFAKYGNPNETQNNSTSWPVFKSTEQKYLTLNTESTRIMTKLRAQQCRFWTSFFPKVLEMTGNIDEAEWEWKAGFHRWNNYMMDWKNQFNDYTSKKESCVGL
On to B4, for which the Km came out at 240 µM.

B5: V288F (protein, UniProt P06276 29-602, looked up, variant V288F)
Cholinesterase: EDDIIIATKNGKVRGMNLTVFGGTVTAFLGIPYAQPPLGRLRFKKPQSLTKWSDIWNATKYANSCCQNIDQSFPGFHGSEMWNPNTDLSEDCLYLNVWIPAPKPKNATVLIWIYGGGFQTGTSSLHVYDGKFLARVERVIVVSMNYRVGALGFLALPGNPEAPGNMGLFDQQLALQWVQKNIAAFGGNPKSVTLFGESAGAASVSLHLLSPGSHSLFTRAILQSGSFNAPWAVTSLYEARNRTLNLAKLTGCSRENETEIIKCLRNKDPQEILLNEAFVVPYGTPLSFNFGPTVDGDFLTDMPDILLELGQFKKTQILVGVNKDEGTAFLVYGAPGFSKDNNSIITRKEFQEGLKIFFPGVSEFGKESILFHYTDWVDDQRPENYREALGDVVGDYNFICPALEFTKKFSEWGNNAFFYYFEHRSSKLPWPEWMGVMHGYEIEFVFGLPLERRDNYTKAEEILSRSIVKRWANFAKYGNPNETQNNSTSWPVFKSTEQKYLTLNTESTRIMTKLRAQQCRFWTSFFPKVLEMTGNIDEAEWEWKAGFHRWNNYMMDWKNQFNDYTSKKESCVGL
For the molecule B5, the Km stood at 17 µM, the “kcat (hydrolysis rate)” value is 0.0167 s⁻¹ and the “Cocaine Binding or Cocaine Hydrolysis” value is “Not a cocaine hydrolase”.

B6: Q119Y/V288F/A328Y (protein, UniProt P06276 29-602, looked up, variant Q119Y V288F A328Y)
Cholinesterase: EDDIIIATKNGKVRGMNLTVFGGTVTAFLGIPYAQPPLGRLRFKKPQSLTKWSDIWNATKYANSCCQNIDQSFPGFHGSEMWNPNTDLSEDCLYLNVWIPAPKPKNATVLIWIYGGGFYTGTSSLHVYDGKFLARVERVIVVSMNYRVGALGFLALPGNPEAPGNMGLFDQQLALQWVQKNIAAFGGNPKSVTLFGESAGAASVSLHLLSPGSHSLFTRAILQSGSFNAPWAVTSLYEARNRTLNLAKLTGCSRENETEIIKCLRNKDPQEILLNEAFVVPYGTPLSFNFGPTVDGDFLTDMPDILLELGQFKKTQILVGVNKDEGTYFLVYGAPGFSKDNNSIITRKEFQEGLKIFFPGVSEFGKESILFHYTDWVDDQRPENYREALGDVVGDYNFICPALEFTKKFSEWGNNAFFYYFEHRSSKLPWPEWMGVMHGYEIEFVFGLPLERRDNYTKAEEILSRSIVKRWANFAKYGNPNETQNNSTSWPVFKSTEQKYLTLNTESTRIMTKLRAQQCRFWTSFFPKVLEMTGNIDEAEWEWKAGFHRWNNYMMDWKNQFNDYTSKKESCVGL
For the molecule B6, the Km was 33 µM, the “kcat (hydrolysis rate)” value came out at 0.0383 s⁻¹ and the “Cocaine Binding or Cocaine Hydrolysis” value is “Not a cocaine hydrolase”.

B7: A328F (protein, UniProt P06276 29-602, looked up, variant A328F)
Cholinesterase: EDDIIIATKNGKVRGMNLTVFGGTVTAFLGIPYAQPPLGRLRFKKPQSLTKWSDIWNATKYANSCCQNIDQSFPGFHGSEMWNPNTDLSEDCLYLNVWIPAPKPKNATVLIWIYGGGFQTGTSSLHVYDGKFLARVERVIVVSMNYRVGALGFLALPGNPEAPGNMGLFDQQLALQWVQKNIAAFGGNPKSVTLFGESAGAASVSLHLLSPGSHSLFTRAILQSGSFNAPWAVTSLYEARNRTLNLAKLTGCSRENETEIIKCLRNKDPQEILLNEAFVVPYGTPLSVNFGPTVDGDFLTDMPDILLELGQFKKTQILVGVNKDEGTFFLVYGAPGFSKDNNSIITRKEFQEGLKIFFPGVSEFGKESILFHYTDWVDDQRPENYREALGDVVGDYNFICPALEFTKKFSEWGNNAFFYYFEHRSSKLPWPEWMGVMHGYEIEFVFGLPLERRDNYTKAEEILSRSIVKRWANFAKYGNPNETQNNSTSWPVFKSTEQKYLTLNTESTRIMTKLRAQQCRFWTSFFPKVLEMTGNIDEAEWEWKAGFHRWNNYMMDWKNQFNDYTSKKESCVGL
In the case of B7, the Km was 24 µM, the “kcat (hydrolysis rate)” value was determined as 0.0967 s⁻¹ and the “Cocaine Binding or Cocaine Hydrolysis” value is recorded as “Not a cocaine hydrolase”.

B8: A328W (protein)
chain: MDSKVTIICIRFLFWFLLLCMLIGKSHTEDDIIIATKNGKVRGMNLTVFGGTVTAFLGIPYAQPPLGRLRFKKPQSLTKWSDIWNATKYANSCCQNIDQSFPGFHGSEMWNPNTDLSEDCLYLNVWIPAPKPKNATVLIWIYGGGFQTGTSSLHVYDGKFLARVERVIVVSMNYRVGALGFLALPGNPEAPGNMGLFDQQLALQWVQKNIAAFGGNPKSVTLFGESAGAASVSLHLLSPGSHSLFTRAILQSGSFNAPWAVTSLYEARNRTLNLAKLTGCSRENETEIIKCLRNKDPQEILLNEAFVVPYGTPLSVNFGPTVDGDFLTDMPDILLELGQFKKTQILVGVNKDEGTWFLVYGAPGFSKDNNSIITRKEFQEGLKIFFPGVSEFGKESILFHYTDWVDDQRPENYREALGDVVGDYNFICPALEFTKKFSEWGNNAFFYYFEHRSSKLPWPEWMGVMHGYEIEFVFGLPLERRDNYTKAEEILSRSIVKRWANFAKYGNPNETQNNSTSWPVFKSTEQKYLTLNTESTRIMTKLRAQQCRFWTSFFPKVLEMTGNIDEAEWEWKAGFHRWNNYMMDWKNQFNDYTSKKESCVGL
modifications: Human Butyrylcholinesterase variant
Turning to B8, the Km stood at 10 µM and the “kcat (hydrolysis rate)” value turned out to be 0.62 s⁻¹.

The term Km denotes the concentration of substrate that gives half-maximal velocity.

Source of the values: US7070973B2, “Butyrylcholinesterase variants and methods of use” (priority 2000, dated 2006).
